Results on 11 substances are retold here after paper PMC11180167.

Test [1] concerns the target cardiac muscle ryanodine receptor RyR2 in porcine cardiac SR membranes (pig (endogenous in porcine cardiac SR membranes)). In words: co-sedimentation; cardiac SR membranes (0.12 mg/mL) incubated 90 min at 37 °C with 1-60 nM AF488-FKBP12.6 in 150 mM KCl, 20 mM K-PIPES pH 7.0, 5 mM GSH, 0.1 mg/ml BSA, 1 mM EGTA, 65 µM CaCl2 (30 nM free Ca2+); non-specific binding with 20 µM tacrolimus; bound and free separated at 100,000 x g for 25 min; fluorescence of the pellet; Kd from Hill fit, n = 5.

In test [2] the target is skeletal muscle ryanodine receptor RyR1 in porcine skeletal SR membranes (pig (endogenous in porcine skeletal SR membranes)) (UniProt P16960). In words: co-sedimentation; skeletal SR membranes (0.02 mg/ml) incubated 90 min at 37 °C with 1-60 nM AF488-FKBP12.6 in 150 mM KCl, 20 mM K-PIPES pH 7.0, 5 mM GSH, 0.1 mg/ml BSA, 1 mM EGTA, 65 µM CaCl2 (30 nM free Ca2+); non-specific binding with 5 µM unlabeled FKBP12.6; bound and free separated at 100,000 x g for 25 min; fluorescence of the pellet; Kd from Hill fit, n = 3.

Test [3] concerns the target ryanodine receptor 1 (RyR1) in porcine skeletal SR membranes (pig (endogenous in porcine skeletal muscle SR)) (UniProt P16960).
Test [4] has the same target. In words: co-sedimentation; 1-60 nM AF488-FKBP12.6 with SR membranes (0.02 mg/ml skeletal, 0.12 mg/mL cardiac), 90 min at 37 °C, 150 mM KCl, 20 mM K-PIPES pH 7.0, 5 mM GSH, 0.1 mg/ml BSA, 30 nM free Ca2+; bound and free separated at 100,000 x g; non-specific binding with 5 µM unlabeled FKBP12.6 (skeletal) or 20 µM tacrolimus (cardiac); bound AF488 read by fluorescence.

Turning to “AF488-labeled T14C FKBP12.6 (null-cysteine background) (natural protein)”, the Kd is 3.2 nM in test [1] and 3.7 nM in test [2]. “AF488-labeled Q65C FKBP12.6 (null-cysteine background) (natural protein)”: the values for the Kd in test [1] and in test [2] were 2.3 nM and 3.9 nM, respectively. Turning to “AF488-labeled T85C FKBP12.6 (null-cysteine background) (natural protein)”, the Kd was 1.9 nM in test [1] and 5.8 nM in test [2]. “AF488-labeled R49C FKBP12.6 (null-cysteine background) (natural protein)”: the Kd in test [1] is 3.6 nM; in test [2] it was 6.4 nM. The matching figures for “AF488-labeled K44C FKBP12.6 (null-cysteine background) (natural protein)”: 3.7 nM and 4.7 nM.

As to “AF488-labeled G1C FKBP12.6 (null-cysteine background) (natural protein)”, the Kd in test [1] turned out to be 5 nM. Turning to “unlabeled WT-CaM (from UniProt P0DP23 1-149) (natural protein)”, in test [3], the [^3H]ryanodine binding as an index of channel activity, 800 nM CaM, 30 nM Ca2+: increase was 20 fold. In the case of AF488-T6C-FKBP12.6 (natural protein), the Kd in test [4] came out at 7.3 nM.

As for “AF488-labeled E32C FKBP12.6 (null-cysteine background) (natural protein)”, the Kd in test [1] was determined as 1.6 nM; in test [2], 4.9 nM. Turning to “AF488-labeled T6C FKBP12.6 (null-cysteine background) (natural protein)”, the Kd in test [1] came out at 2.7 nM. AF488-G1C-FKBP12.6 (natural protein): the Kd in test [4] amounted to 12.6 nM.

Usually Kd stands for a measure of binding affinity in units of concentration. A low value points to tighter binding.
